Measurements reported in patent US20210017279A1 (NANJING LEGEND BIOTECH, published 2021).
Several values for one entry are separate records, joined by “and”; a condition that tells them apart may be missing. Identical values can stand only once. Like-named read-outs stand apart in the source and are kept apart here.

T1: LAG-3-Fc (human, UniProt P18627 29-450, biotinylated (in the blocking assays))
T1 construct: Recombinant LAG-3-Fc (Acrobiosystems / R&D Systems); also called biotinylated LAG-3-Fc protein; not shown: Fc part
T1 sequence: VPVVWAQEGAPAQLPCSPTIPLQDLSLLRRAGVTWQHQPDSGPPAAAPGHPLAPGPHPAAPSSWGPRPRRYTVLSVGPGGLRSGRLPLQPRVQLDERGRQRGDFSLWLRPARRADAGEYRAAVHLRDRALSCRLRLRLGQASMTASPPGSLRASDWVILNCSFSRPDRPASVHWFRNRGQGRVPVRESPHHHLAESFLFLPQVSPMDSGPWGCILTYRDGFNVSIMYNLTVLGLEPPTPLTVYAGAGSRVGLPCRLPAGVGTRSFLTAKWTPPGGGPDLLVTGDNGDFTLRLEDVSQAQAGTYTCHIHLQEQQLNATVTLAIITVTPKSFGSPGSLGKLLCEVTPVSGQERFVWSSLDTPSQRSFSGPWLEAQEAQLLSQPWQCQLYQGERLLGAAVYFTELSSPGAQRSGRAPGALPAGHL

T2: Human LAG-3-His (human, UniProt P18627 29-450)
T2 construct: Bought recombinant protein; also called Human LAG-3 protein (Acrobiosystem, 772-6BGF2-D5); not shown: His tag
T2 sequence: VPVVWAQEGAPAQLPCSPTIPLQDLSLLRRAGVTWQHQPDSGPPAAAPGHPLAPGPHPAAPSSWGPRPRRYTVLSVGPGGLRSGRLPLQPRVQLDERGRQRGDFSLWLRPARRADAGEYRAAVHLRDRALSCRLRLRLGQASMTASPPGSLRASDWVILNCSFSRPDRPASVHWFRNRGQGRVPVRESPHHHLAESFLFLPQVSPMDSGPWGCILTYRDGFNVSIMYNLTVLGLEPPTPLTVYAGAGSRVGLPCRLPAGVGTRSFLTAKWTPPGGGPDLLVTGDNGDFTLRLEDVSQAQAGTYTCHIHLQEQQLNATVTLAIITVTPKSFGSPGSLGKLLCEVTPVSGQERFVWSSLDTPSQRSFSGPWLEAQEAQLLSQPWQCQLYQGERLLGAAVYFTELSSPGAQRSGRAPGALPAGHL

T3: human LAG-3 expressed on CHO-K1 cells (human, UniProt P18627 29-525)
T3 construct: also called CHO-huLAG-3 cells; LAG-3 expressed on CHO cells
T3 sequence: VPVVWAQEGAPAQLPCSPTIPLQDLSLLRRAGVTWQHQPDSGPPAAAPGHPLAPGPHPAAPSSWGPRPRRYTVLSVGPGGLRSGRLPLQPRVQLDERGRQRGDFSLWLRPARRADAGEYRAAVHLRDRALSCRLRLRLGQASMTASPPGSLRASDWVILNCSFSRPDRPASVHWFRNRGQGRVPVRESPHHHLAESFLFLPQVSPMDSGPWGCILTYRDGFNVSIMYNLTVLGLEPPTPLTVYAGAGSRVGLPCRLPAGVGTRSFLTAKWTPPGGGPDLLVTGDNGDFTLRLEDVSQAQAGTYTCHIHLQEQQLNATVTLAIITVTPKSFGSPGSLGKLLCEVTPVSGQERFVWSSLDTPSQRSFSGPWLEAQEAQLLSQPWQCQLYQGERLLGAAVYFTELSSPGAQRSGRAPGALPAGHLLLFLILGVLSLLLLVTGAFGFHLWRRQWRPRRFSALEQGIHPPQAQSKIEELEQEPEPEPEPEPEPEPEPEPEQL


How the values were obtained:
Cynomolgus LAG-3-Fc [1] = target: T4, Cynomolgus LAG-3-Fc (cynomolgus); experiment: SPR (Biacore T200); antibody captured on chip, LAG-3 injected
T4 construct: Bought recombinant protein; also called cynomolgus LAG-3 protein (Acrobiosystem, 2187-71HF1-DZ)
Experimental: BIACORE™ T200 instrument was utilized to determine the affinity constant (KD) of each anti-LAG-3 antibody (sdAb-Fc fusion protein or mAb format) by SPR. Briefly, anti-LAG-3 antibody was immobilized on the sensor chip through capture antibody (Jackson ImmunoResearch Cat. No.115-005-071) at an appropriate density. […] The data of dissociation rate constant (koff) and association rate constant (kₘ) were obtained using BIACORE™ T200 evaluation software and the affinity constant (KD) were calculated from the ratio of koff to kₘ.

[2] = target: LAG-3 on Thaw-and-Use LAG-3 Effector cells; experiment: cell-based or functional assay
Cynomolgus LAG-3-Fc [3] = target: T4, Cynomolgus LAG-3-Fc; experiment: SPR (Biacore T200); cynomolgus LAG-3 immobilized, antibody injected
Source text: BIACORE™ T200 instrument was utilized to determine affinity constant (KD) of each anti-LAG-3 antibody (sdAb-Fc fusion protein or mAb format) by SPR. Briefly, for measuring the affinity against human LAG-3, anti-LAG-3 antibody was immobilized on the sensor chip through capture antibody (Jackson ImmunoResearch Cat.No.115-005-071) at an appropriate density. […] The data of dissociation rate constant (koff) and association rate constant (k₀n) were obtained using BIACORE™ T200 evaluation software and the affinity constant (KD) were calculated from the ratio of koff to kₒₙ.

[4] = target: T5, cynomolgus LAG-3 expressed on CHO-K1 cells (cynomolgus); experiment: flow cytometry on CHO-K1 cells expressing cynomolgus LAG-3
T5 construct: whole, on cells
Experimental: (§1) To determine cell binding EC₅₀, CHO-K1 cells expressing human or cynomolgus LAG-3 were harvested and incubated with anti-LAG-3 sdAb-Fc fusion proteins at gradient concentrations, followed by fluorophore-labeled secondary antibodies against human Fc. […] The samples were then analyzed with flow cytometry. The binding and blocking curves were shown in FIG. 4 and FIG. 5, respectively.

[5] = target: LAG-3 on Thaw-and-Use LAG-3 Effector cells; experiment: cell-based or functional assay; remark: listed apart in the source
LAG-3-Fc [6] = target: T1, LAG-3-Fc; experiment: flow cytometry competition; blocks LAG-3-Fc binding to MHC II on A375 cells; Experiment 2
[7] = target: T6, PD-1 expressed on CHO cells (UniProt Q15116 25-288, limits assumed); experiment: flow cytometry on CHO cells expressing PD-1; Experiment 2
T6 construct: whole, on cells; also called CHO-PD-1 cells

[8] = target: T6, PD-1 expressed on CHO cells; experiment: flow cytometry competition; blocks PD-L1 binding to CHO-PD-1 cells; Experiment 2
Human PD-1 [9] = target: T7, Human PD-1 (human, UniProt Q15116 25-167, limits assumed); experiment: SPR (Biacore T200), as in Example 3; Experiment 2
Human LAG-3-His [10] = target: T2, Human LAG-3-His; experiment: SPR (Biacore T200), as in Example 3; Experiment 2
[11] = target: PD-1 in the PD-1 cell based reporter assay; experiment: cell-based or functional assay
[12] = target: T3, human LAG-3 expressed on CHO-K1 cells; experiment: flow cytometry on CHO cells expressing LAG-3; Experiment 2
Experimental: as §1

[13] = target: T6, PD-1 expressed on CHO cells; experiment: flow cytometry competition; blocks PD-L1 binding to CHO-PD-1 cells; Experiment 1
Human PD-1 [14] = target: T7, Human PD-1; experiment: SPR (Biacore T200), as in Example 3; Experiment 1
Human LAG-3-His [15] = target: T2, Human LAG-3-His; experiment: SPR (Biacore T200), as in Example 3; Experiment 1
[16] = target: T6, PD-1 expressed on CHO cells; experiment: flow cytometry on CHO cells expressing PD-1; Experiment 1
[17] = target: T3, human LAG-3 expressed on CHO-K1 cells; experiment: flow cytometry on CHO cells expressing LAG-3; Experiment 1
LAG-3-Fc [18] = target: T1, LAG-3-Fc; experiment: flow cytometry competition; blocks LAG-3-Fc binding to MHC II on A375 cells; Experiment 1

T7 sequence (Q15116 25-167 limits assumed): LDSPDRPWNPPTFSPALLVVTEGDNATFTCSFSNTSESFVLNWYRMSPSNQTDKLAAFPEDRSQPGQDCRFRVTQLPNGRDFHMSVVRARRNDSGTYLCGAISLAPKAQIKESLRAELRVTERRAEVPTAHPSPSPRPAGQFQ
T6 sequence (Q15116 25-288 limits assumed): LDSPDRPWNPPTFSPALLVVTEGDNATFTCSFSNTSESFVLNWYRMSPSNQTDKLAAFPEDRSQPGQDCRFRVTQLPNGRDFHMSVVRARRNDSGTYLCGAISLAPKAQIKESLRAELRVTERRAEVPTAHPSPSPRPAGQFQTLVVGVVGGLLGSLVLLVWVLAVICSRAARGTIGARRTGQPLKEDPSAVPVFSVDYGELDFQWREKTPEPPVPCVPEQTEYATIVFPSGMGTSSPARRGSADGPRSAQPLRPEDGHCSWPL

| Kd (Cynomolgus LAG-3-Fc [1]) [nM] | LAG-3 blockade reporter assay EC50 [2] | Kd (Cynomolgus LAG-3-Fc [3]) [nM] | EC50 [4] [nM] | LAG-3 blockade reporter assay EC50 [5] [nM] | LAG-3 blockade reporter assay Signal span (% activation) [5] [% activation] | EC50 (LAG-3-Fc [6]) [nM] | EC50 [7] [nM] | EC50 [8] [nM] | Kd (Human PD-1 [9]) [nM] | Kd (Human LAG-3-His [10]) [nM] | PD-1 cell based reporter assay EC50 [11] [nM] | EC50 [12] [nM] | EC50 [13] [nM] | Kd (Human PD-1 [14]) [nM] | Kd (Human LAG-3-His [15]) [nM] | EC50 [16] [nM] | EC50 [17] [nM] | EC50 (LAG-3-Fc [18]) [nM] | Binder |
| --- | --- | --- | --- | --- | --- | --- | --- | --- | --- | --- | --- | --- | --- | --- | --- | --- | --- | --- | --- |
| 1.7 | 3.29 nM and 3.82 nM | 1000 | 17.6 | 3.82 | 76.8 | – | – | – | – | – | – | – | – | – | – | – | – | – | BMS-986016 (antibody, human IgG4 S228P, kappa, V domains shown, also called benchmark antibody; positive control anti-LAG-3 monoclonal antibody (Bristol-Myers Squibb)) VH: QVQLQQWGAGLLKPSETLSLTCAVYGGSFSDYYWNWIRQPPGKGLEWIGEINHRGSTNSNPSLKSRVTLSLDTSKNQFSLKLRSVTAADTAVYYCAFGYSDYEYNWFDPWGQGTLVTVSS VL: EIVLTQSPATLSLSPGERATLSCRASQSISSYLAWYQQKPGQAPRLLIYDASNRATGIPARFSGSGSGTDFTLTISSLEPEDFAVYYCQQRSNWPLTFGQGTNLEIKR |
| – | 1.57 nM | – | – | – | – | 44.6 | 14.6 | 21 | 4 | 1.4 | 3.65 | 13.5 | – | – | – | – | – | – | BLP-19 (bispecific antibody, human IgG4 S228P, kappa, also called PD-1 x LAG-3 BABP) heavy: not shown light: EVQLVESGGGLVQPGGSLRLSCAASGYTYGGYCMGWFRQAPGKGLEGVSTINSDGSTNYADSVKGRFTISRDNSKNTLYLQMNSLRAEDTAVYYCAVDLAPCWVAGPIEAADFGYWGQGTLVTVSSEPKSSDKTHTSPPSPDIQMTQSPSSVSASVGDRVTITCKASQDVDTAVAWYQQKPGKAPKLLIYWASTRHTGVPSRFSGSGSGTDFTLTISSLQPEDFATYYCQQYSTFPWTFGGGTKVEIKRTVAAPSVFIFPPSDEQLKSGTASVVCLLNNFYPREAKVQWKVDNALQSGNSQESVTEQDSKDSTYSLSSTLTLSKADYEKHKVYACEVTHQGLSSPVTKSFNRGEC |
| – | 4.6 nM | – | – | – | – | – | – | – | – | – | 7.62 | – | 6.66 | 1.8 | 0.44 | 7.91 | 0.883 | 1.8 | BLP-1 (bispecific antibody, human IgG4 S228P, kappa, also called PD-1 x LAG-3 proof-of-concept BABP) heavy: not shown light: DIQMTQSPSSVSASVGDRVTITCKASQDVDTAVAWYQQKPGKAPKLLIYWASTRHTGVPSRFSGSGSGTDFTLTISSLQPEDFATYYCQQYSTFPWTFGGGTKVEIKRTVAAPSVFIFPPSDEQLKSGTASVVCLLNNFYPREAKVQWKVDNALQSGNSQESVTEQDSKDSTYSLSSTLTLSKADYEKHKVYACEVTHQGLSSPVTKSFNRGEC |
| – | 15.8 nM | – | – | – | – | 37.1 | 12.5 | 13.8 | 3.1 | 3.7 | 2.77 | 3.12 | – | – | – | – | – | – | BLP-34 (bispecific antibody, human IgG4 S228P, kappa, also called PD-1 x LAG-3 BABP) heavy: not shown light: EPKSSDKTHTSPPSPEVQLVESGGGLVQPGGSLRLSCAASGYIISSYCMGWFRQAPGKGLEGVAAIDSDGGTSYADSVKGRFTISKDNSKNTLYLQMNSLRAEDTAMYYCAADFCWVDEDRHLYEYNSWGQGTLVTVSSDIQMTQSPSSVSASVGDRVTITCKASQDVDTAVAWYQQKPGKAPKLLIYWASTRHTGVPSRFSGSGSGTDFTLTISSLQPEDFATYYCQQYSTFPWTFGGGTKVEIKRTVAAPSVFIFPPSDEQLKSGTASVVCLLNNFYPREAKVQWKVDNALQSGNSQESVTEQDSKDSTYSLSSTLTLSKADYEKHKVYACEVTHQGLSSPVTKSFNRGEC |
